The source of these data is article PMC12728182, “Hierarchical folding-upon-binding of an intrinsically disordered protein” (Nature Communications, 2025).

What all share (conditions): both partners purified
Assay [1] deals with T1, Human Rac1 (residues 1-177), GMPPNP-loaded (human, UniProt P63000 1-177). Description: ITC; POSH_(315-380) (1000 uM) titrated into GMPPNP-loaded Rac1 (125 uM), 35 °C, 50 mM HEPES pH 6.9, 150 mM NaCl, 5 mM MgCl2, 2 mM TCEP; model 'One set of sites'; duplicates. For orientation: Isothermal titration calorimetry measures the heat released or taken up as one component is titrated into another.

Assay [2] has as its target T1, Human Rac1 (residues 1-177), …. As to the kind of experiment: NMR 15N CEST; 15N POSH_(315-380) (500 uM) with 20% molar ratio of Rac1 (100 uM), 950 MHz, four B1 fields (5.2, 10.3, 20.5, 68.6 Hz); global fit with a linear 4-site exchange model (ChemEx), total bound population fixed from Kd = 24 uM at 25 °C.
For assay [3] the target is unchanged. As to the kind of experiment: ITC; Kd at 25 °C not measured directly (binding enthalpy close to 0); estimated through linear extrapolation of the Gibbs free energy measured by ITC at 5, 10, 15 and 35 °C; same buffer.

B1: POSH_(315-380), shorter construct of human POSH comprising MRE1 and MRE2 (domain or fragment)
chain: GHMWSQASQNRHSMEISPPVLISSSNPTAAARISELSGLSCSAPSQVHISTTGLIVTPPPSSPVTTGPSF
Consider B1, for which, in assay [1], the Kd lay in the range of 21 to 46 µM. In assay [2], the “kAB (intermediate A to B, folding of the MRE1 helix on Rac1, 4-site model)” value was determined as 72 s⁻¹ and the “kBC (intermediate B to final complex C, folding of MRE2 on Rac1, 4-site model)” value stood at 89 s⁻¹. In addition, the Kd in assay [3] was 24 µM.

The term Kd denotes the constant that tells how readily two partners part at equilibrium.
